Columns and labels:
[1] = biological target: amyloid-β 1-42 fibers (fAβ42) (human) (UniProt P05067); experiment: Aβ binding competition assay; ArgC-treated M13 as competitor of Alexa-488 M13
[2] = biological target: amyloid-β 1-42 fibers (fAβ42) (human) (UniProt P05067); experiment: Aβ binding competition assay; ArgC-treated M13 as competitor of Alexa-488 M13; fifth bar, label printed [5 FOLD] (the text speaks of 15 fold)

amyloid-β 1-42 fibers (fAβ42) (human), sequence (P05067 672-713 limits assumed): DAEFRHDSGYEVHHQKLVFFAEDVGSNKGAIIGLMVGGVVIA

## M13Δg3p (M13 phage with g3p removed by ArgC protease)
[1]
  ALEXA LABELED 488 PELLETED: 86.7
[2]
  ALEXA LABELED 488 PELLETED: 85.9

Source: patent publication US20170305975A1
